# B1: Speckle-type POZ protein (Homo sapiens), O43791 (parent)
# chain: MSRVPSPPPPAEMSSGPVAESWCYTQIKVVKFSYMWTINNFSFCREEMGEVIKSSTFSSGANDKLKWCLRVNPKGLDEESKDYLSLYLLLVSCPKSEVRAKFKFSILNAKGEETKAMESQRAYRFVQGKDWGFKKFIRRDFLLDEANGLLPDDKLTLFCEVSVVQDSVNISGQNTMNMVKVPECRLADELGGLWENSRFTDCCLCVAGQEFQAHKAILAARSPVFSAMFEHEMEESKKNRVEINDVEPEVFKEMMCFIYTGKAPNLDKMADDLLAAADKYALERLKVMCEDALCSNLSVENAAEILILADLHSADQLKTQAVDFINYHASDVLETSGWKSMVVSHPHLVAEAYRSLASAQCPFLGPPRKRLKQS
# Variants of: B1
# Conditions: with gbra6_human GABRA6, Q16445
# Sequence of gbra6_human GABRA6, Q16445 (Q16445 whole entry): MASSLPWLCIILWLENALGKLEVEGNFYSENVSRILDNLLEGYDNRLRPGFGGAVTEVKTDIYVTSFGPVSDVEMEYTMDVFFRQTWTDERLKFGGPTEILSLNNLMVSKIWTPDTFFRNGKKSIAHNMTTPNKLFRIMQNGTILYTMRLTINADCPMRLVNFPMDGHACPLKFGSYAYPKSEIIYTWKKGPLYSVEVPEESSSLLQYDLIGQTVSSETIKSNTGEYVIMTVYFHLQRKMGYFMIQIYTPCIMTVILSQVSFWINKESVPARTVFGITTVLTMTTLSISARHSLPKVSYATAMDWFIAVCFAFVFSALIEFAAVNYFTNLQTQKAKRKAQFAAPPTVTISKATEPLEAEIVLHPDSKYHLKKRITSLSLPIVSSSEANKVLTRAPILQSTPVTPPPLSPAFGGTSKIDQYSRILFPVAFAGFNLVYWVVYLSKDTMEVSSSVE
row,effect of a mutation on the interaction,Variant
1,with no effect,MSRVPSPPPPAEMSSGPVAESWCYTQIKVVKFSYMWTINNFSFCREEMGEVIKSSTFSSGANDKLKWCLRVNPKGLDEESKDYLSLYLLLVSCPKSEVRAKFKFSILNAKGEETKAMESQRAYRFVQGKDWGVKKFIRRDFLLDEANGLLPDDKLTLFCEVSVVQDSVNISGQNTMNMVKVPECRLADELGGLWENSRFTDCCLCVAGQEFQAHKAILAARSPVFSAMFEHEMEESKKNRVEINDVEPEVFKEMMCFIYTGKAPNLDKMADDLLAAADKYALERLKVMCEDALCSNLSVENAAEILILADLHSADQLKTQAVDFINYHASDVLETSGWKSMVVSHPHLVAEAYRSLASAQCPFLGPPRKRLKQS [F133V]

# Variants of: B1
# Conditions: with gata1_human GATA1, P15976
# Sequence of gata1_human GATA1, P15976 (P15976 whole entry): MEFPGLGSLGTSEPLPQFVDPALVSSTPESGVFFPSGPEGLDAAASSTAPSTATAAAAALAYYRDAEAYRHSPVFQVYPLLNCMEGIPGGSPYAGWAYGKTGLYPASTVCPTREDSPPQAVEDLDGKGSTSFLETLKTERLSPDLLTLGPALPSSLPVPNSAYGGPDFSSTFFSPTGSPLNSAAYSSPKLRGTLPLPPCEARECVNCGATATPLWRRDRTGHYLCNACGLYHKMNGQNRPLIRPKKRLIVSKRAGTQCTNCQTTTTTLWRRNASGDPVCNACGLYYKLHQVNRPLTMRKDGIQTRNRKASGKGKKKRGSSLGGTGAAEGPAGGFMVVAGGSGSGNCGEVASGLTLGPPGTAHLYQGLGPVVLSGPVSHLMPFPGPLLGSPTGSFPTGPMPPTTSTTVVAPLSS
row,effect of a mutation on the interaction,Variant
1,with no effect,MSRVPSPPPPAEMSSGPVAESWCYTQIKVVKFSYMWTINNFSFCREEMGEVIKSSTFSSGANDKLKWCLRVNPKGLDEESKDYLSLYLLLVSCPKSEVRAKFKFSILNAKGEETKAMESQRAYRFVQGKDWGVKKFIRRDFLLDEANGLLPDDKLTLFCEVSVVQDSVNISGQNTMNMVKVPECRLADELGGLWENSRFTDCCLCVAGQEFQAHKAILAARSPVFSAMFEHEMEESKKNRVEINDVEPEVFKEMMCFIYTGKAPNLDKMADDLLAAADKYALERLKVMCEDALCSNLSVENAAEILILADLHSADQLKTQAVDFINYHASDVLETSGWKSMVVSHPHLVAEAYRSLASAQCPFLGPPRKRLKQS [F133V]

# Variants of: B1
# Conditions: with p66b_human GATAD2B
row,effect of a mutation on the interaction,Variant
1,with no effect,MSRVPSPPPPAEMSSGPVAESWCYTQIKVVKFSYMWTINNFSFCREEMGEVIKSSTFSSGANDKLKWCLRVNPKGLDEESKDYLSLYLLLVSCPKSEVRAKFKFSILNAKGEETKAMESQRAYRFVQGKDWGVKKFIRRDFLLDEANGLLPDDKLTLFCEVSVVQDSVNISGQNTMNMVKVPECRLADELGGLWENSRFTDCCLCVAGQEFQAHKAILAARSPVFSAMFEHEMEESKKNRVEINDVEPEVFKEMMCFIYTGKAPNLDKMADDLLAAADKYALERLKVMCEDALCSNLSVENAAEILILADLHSADQLKTQAVDFINYHASDVLETSGWKSMVVSHPHLVAEAYRSLASAQCPFLGPPRKRLKQS [F133V]

# Variants of: B1
# Conditions: with gna11_human GNA11, P29992
# Sequence of gna11_human GNA11, P29992 (P29992 whole entry): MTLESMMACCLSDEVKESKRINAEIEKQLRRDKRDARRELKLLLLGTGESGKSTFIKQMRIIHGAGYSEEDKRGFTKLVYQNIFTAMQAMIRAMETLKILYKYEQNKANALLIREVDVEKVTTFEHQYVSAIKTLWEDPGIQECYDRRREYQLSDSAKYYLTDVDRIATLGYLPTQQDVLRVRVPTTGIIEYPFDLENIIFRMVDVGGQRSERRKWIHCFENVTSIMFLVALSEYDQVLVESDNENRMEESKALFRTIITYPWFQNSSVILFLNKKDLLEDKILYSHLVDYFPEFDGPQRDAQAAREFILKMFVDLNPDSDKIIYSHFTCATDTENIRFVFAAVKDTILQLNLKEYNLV
row,effect of a mutation on the interaction,Variant
1,with no effect,MSRVPSPPPPAEMSSGPVAESWCYTQIKVVKFSYMWTINNFSFCREEMGEVIKSSTFSSGANDKLKWCLRVNPKGLDEESKDYLSLYLLLVSCPKSEVRAKFKFSILNAKGEETKAMESQRAYRFVQGKDWGVKKFIRRDFLLDEANGLLPDDKLTLFCEVSVVQDSVNISGQNTMNMVKVPECRLADELGGLWENSRFTDCCLCVAGQEFQAHKAILAARSPVFSAMFEHEMEESKKNRVEINDVEPEVFKEMMCFIYTGKAPNLDKMADDLLAAADKYALERLKVMCEDALCSNLSVENAAEILILADLHSADQLKTQAVDFINYHASDVLETSGWKSMVVSHPHLVAEAYRSLASAQCPFLGPPRKRLKQS [F133V]

# Variants of: B1
# Conditions: with gna13_human GNA13, Q14344
# Sequence of gna13_human GNA13, Q14344 (Q14344 whole entry): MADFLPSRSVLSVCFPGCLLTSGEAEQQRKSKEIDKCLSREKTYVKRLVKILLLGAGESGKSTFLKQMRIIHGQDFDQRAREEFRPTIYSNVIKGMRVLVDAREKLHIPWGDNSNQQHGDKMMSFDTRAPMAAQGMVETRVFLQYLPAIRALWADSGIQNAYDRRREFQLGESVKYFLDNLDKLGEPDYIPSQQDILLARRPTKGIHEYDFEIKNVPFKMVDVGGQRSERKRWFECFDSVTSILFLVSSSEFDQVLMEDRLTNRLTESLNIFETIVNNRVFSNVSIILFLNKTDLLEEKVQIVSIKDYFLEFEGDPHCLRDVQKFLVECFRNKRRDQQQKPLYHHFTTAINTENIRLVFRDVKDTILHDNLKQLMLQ
row,effect of a mutation on the interaction,Variant
1,with no effect,MSRVPSPPPPAEMSSGPVAESWCYTQIKVVKFSYMWTINNFSFCREEMGEVIKSSTFSSGANDKLKWCLRVNPKGLDEESKDYLSLYLLLVSCPKSEVRAKFKFSILNAKGEETKAMESQRAYRFVQGKDWGVKKFIRRDFLLDEANGLLPDDKLTLFCEVSVVQDSVNISGQNTMNMVKVPECRLADELGGLWENSRFTDCCLCVAGQEFQAHKAILAARSPVFSAMFEHEMEESKKNRVEINDVEPEVFKEMMCFIYTGKAPNLDKMADDLLAAADKYALERLKVMCEDALCSNLSVENAAEILILADLHSADQLKTQAVDFINYHASDVLETSGWKSMVVSHPHLVAEAYRSLASAQCPFLGPPRKRLKQS [F133V]

# Variants of: B1
# Conditions: with gnaq_human GNAQ
row,effect of a mutation on the interaction,Variant
1,with no effect,MSRVPSPPPPAEMSSGPVAESWCYTQIKVVKFSYMWTINNFSFCREEMGEVIKSSTFSSGANDKLKWCLRVNPKGLDEESKDYLSLYLLLVSCPKSEVRAKFKFSILNAKGEETKAMESQRAYRFVQGKDWGVKKFIRRDFLLDEANGLLPDDKLTLFCEVSVVQDSVNISGQNTMNMVKVPECRLADELGGLWENSRFTDCCLCVAGQEFQAHKAILAARSPVFSAMFEHEMEESKKNRVEINDVEPEVFKEMMCFIYTGKAPNLDKMADDLLAAADKYALERLKVMCEDALCSNLSVENAAEILILADLHSADQLKTQAVDFINYHASDVLETSGWKSMVVSHPHLVAEAYRSLASAQCPFLGPPRKRLKQS [F133V]

# Variants of: B1
# Conditions: with grm1_human GRM1, Q13255
# Sequence of grm1_human GRM1, Q13255 (Q13255 whole entry, looked up): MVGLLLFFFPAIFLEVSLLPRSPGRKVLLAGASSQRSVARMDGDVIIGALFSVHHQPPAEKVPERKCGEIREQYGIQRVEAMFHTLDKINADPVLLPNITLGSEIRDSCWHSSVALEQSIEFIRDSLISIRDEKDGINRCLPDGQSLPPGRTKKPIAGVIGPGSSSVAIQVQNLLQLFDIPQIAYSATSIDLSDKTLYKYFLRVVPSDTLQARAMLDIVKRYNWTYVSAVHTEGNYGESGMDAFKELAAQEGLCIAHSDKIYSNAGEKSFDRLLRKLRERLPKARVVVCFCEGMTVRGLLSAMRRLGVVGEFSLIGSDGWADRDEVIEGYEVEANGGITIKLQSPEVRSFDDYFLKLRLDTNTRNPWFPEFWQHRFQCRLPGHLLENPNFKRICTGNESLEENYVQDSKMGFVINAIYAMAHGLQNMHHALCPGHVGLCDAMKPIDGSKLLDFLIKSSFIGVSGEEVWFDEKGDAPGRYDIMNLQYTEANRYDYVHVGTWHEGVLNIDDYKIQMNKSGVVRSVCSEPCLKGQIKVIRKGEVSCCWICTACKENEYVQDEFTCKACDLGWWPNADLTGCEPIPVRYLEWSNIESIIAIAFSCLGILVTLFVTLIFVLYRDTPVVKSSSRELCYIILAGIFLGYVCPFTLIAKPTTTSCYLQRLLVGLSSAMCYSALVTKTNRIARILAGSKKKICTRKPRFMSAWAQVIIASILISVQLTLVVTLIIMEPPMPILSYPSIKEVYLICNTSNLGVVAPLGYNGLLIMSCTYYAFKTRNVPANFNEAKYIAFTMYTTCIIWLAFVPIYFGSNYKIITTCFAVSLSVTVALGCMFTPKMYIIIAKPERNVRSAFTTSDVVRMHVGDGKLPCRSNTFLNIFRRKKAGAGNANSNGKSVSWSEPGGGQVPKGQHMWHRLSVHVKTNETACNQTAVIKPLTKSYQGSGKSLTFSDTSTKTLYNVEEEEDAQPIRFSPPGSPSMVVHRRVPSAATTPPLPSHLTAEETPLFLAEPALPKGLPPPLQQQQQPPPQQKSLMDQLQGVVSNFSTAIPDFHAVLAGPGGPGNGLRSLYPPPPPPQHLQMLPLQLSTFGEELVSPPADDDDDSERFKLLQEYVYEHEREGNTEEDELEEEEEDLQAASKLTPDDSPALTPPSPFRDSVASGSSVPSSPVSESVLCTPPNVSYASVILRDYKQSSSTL
row,effect of a mutation on the interaction,Variant
1,with no effect,MSRVPSPPPPAEMSSGPVAESWCYTQIKVVKFSYMWTINNFSFCREEMGEVIKSSTFSSGANDKLKWCLRVNPKGLDEESKDYLSLYLLLVSCPKSEVRAKFKFSILNAKGEETKAMESQRAYRFVQGKDWGVKKFIRRDFLLDEANGLLPDDKLTLFCEVSVVQDSVNISGQNTMNMVKVPECRLADELGGLWENSRFTDCCLCVAGQEFQAHKAILAARSPVFSAMFEHEMEESKKNRVEINDVEPEVFKEMMCFIYTGKAPNLDKMADDLLAAADKYALERLKVMCEDALCSNLSVENAAEILILADLHSADQLKTQAVDFINYHASDVLETSGWKSMVVSHPHLVAEAYRSLASAQCPFLGPPRKRLKQS [F133V]

# Variants of: B1
# Conditions: with grm3_human GRM3, Q14832
# Sequence of grm3_human GRM3, Q14832 (Q14832 whole entry, looked up): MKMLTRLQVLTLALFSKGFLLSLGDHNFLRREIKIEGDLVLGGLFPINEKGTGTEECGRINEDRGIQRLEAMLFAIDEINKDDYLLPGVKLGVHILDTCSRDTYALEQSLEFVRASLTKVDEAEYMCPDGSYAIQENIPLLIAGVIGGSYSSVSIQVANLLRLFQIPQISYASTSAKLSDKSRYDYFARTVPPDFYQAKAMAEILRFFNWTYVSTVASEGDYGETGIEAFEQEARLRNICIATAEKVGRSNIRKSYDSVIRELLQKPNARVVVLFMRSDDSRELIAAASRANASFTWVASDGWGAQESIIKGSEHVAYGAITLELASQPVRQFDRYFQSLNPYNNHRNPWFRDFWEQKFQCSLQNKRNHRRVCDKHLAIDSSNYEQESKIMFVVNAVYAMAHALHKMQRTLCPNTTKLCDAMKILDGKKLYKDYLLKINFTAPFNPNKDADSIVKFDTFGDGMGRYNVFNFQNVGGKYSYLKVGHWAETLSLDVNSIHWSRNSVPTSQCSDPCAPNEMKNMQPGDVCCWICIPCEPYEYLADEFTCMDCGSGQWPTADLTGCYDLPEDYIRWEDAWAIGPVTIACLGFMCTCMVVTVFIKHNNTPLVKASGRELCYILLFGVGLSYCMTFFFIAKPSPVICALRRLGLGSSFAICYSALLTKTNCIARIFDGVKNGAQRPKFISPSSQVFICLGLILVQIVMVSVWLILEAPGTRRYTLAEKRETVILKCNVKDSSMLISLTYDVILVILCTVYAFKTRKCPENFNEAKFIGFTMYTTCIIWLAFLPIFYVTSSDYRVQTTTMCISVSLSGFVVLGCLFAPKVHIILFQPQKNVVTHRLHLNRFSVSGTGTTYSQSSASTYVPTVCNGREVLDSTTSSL
row,effect of a mutation on the interaction,Variant
1,with no effect,MSRVPSPPPPAEMSSGPVAESWCYTQIKVVKFSYMWTINNFSFCREEMGEVIKSSTFSSGANDKLKWCLRVNPKGLDEESKDYLSLYLLLVSCPKSEVRAKFKFSILNAKGEETKAMESQRAYRFVQGKDWGVKKFIRRDFLLDEANGLLPDDKLTLFCEVSVVQDSVNISGQNTMNMVKVPECRLADELGGLWENSRFTDCCLCVAGQEFQAHKAILAARSPVFSAMFEHEMEESKKNRVEINDVEPEVFKEMMCFIYTGKAPNLDKMADDLLAAADKYALERLKVMCEDALCSNLSVENAAEILILADLHSADQLKTQAVDFINYHASDVLETSGWKSMVVSHPHLVAEAYRSLASAQCPFLGPPRKRLKQS [F133V]

# Variants of: B1
# Conditions: with gtpb4_human GTPBP4, Q9BZE4
row,effect of a mutation on the interaction,Variant
1,with no effect,MSRVPSPPPPAEMSSGPVAESWCYTQIKVVKFSYMWTINNFSFCREEMGEVIKSSTFSSGANDKLKWCLRVNPKGLDEESKDYLSLYLLLVSCPKSEVRAKFKFSILNAKGEETKAMESQRAYRFVQGKDWGVKKFIRRDFLLDEANGLLPDDKLTLFCEVSVVQDSVNISGQNTMNMVKVPECRLADELGGLWENSRFTDCCLCVAGQEFQAHKAILAARSPVFSAMFEHEMEESKKNRVEINDVEPEVFKEMMCFIYTGKAPNLDKMADDLLAAADKYALERLKVMCEDALCSNLSVENAAEILILADLHSADQLKTQAVDFINYHASDVLETSGWKSMVVSHPHLVAEAYRSLASAQCPFLGPPRKRLKQS [F133V]

# Variants of: B1
# Conditions: with h33_human H3-3A
row,effect of a mutation on the interaction,Variant
1,with no effect,MSRVPSPPPPAEMSSGPVAESWCYTQIKVVKFSYMWTINNFSFCREEMGEVIKSSTFSSGANDKLKWCLRVNPKGLDEESKDYLSLYLLLVSCPKSEVRAKFKFSILNAKGEETKAMESQRAYRFVQGKDWGVKKFIRRDFLLDEANGLLPDDKLTLFCEVSVVQDSVNISGQNTMNMVKVPECRLADELGGLWENSRFTDCCLCVAGQEFQAHKAILAARSPVFSAMFEHEMEESKKNRVEINDVEPEVFKEMMCFIYTGKAPNLDKMADDLLAAADKYALERLKVMCEDALCSNLSVENAAEILILADLHSADQLKTQAVDFINYHASDVLETSGWKSMVVSHPHLVAEAYRSLASAQCPFLGPPRKRLKQS [F133V]

# Variants of: B1
# Conditions: with hdac1_human HDAC1, Q13547
# Sequence of hdac1_human HDAC1, Q13547 (Q13547 whole entry): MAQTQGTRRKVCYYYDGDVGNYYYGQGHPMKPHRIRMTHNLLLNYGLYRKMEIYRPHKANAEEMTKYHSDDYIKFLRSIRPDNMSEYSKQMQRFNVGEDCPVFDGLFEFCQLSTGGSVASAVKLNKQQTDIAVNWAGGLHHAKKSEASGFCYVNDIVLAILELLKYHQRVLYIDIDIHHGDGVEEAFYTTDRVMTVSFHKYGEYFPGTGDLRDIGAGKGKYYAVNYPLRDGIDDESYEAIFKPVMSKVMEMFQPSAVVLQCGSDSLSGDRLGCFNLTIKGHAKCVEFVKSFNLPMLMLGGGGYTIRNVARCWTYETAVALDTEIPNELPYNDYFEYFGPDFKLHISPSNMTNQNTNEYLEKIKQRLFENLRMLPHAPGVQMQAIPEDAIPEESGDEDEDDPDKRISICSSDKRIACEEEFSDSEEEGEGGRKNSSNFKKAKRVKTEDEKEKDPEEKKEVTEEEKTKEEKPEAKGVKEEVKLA
row,effect of a mutation on the interaction,Variant
1,with no effect,MSRVPSPPPPAEMSSGPVAESWCYTQIKVVKFSYMWTINNFSFCREEMGEVIKSSTFSSGANDKLKWCLRVNPKGLDEESKDYLSLYLLLVSCPKSEVRAKFKFSILNAKGEETKAMESQRAYRFVQGKDWGVKKFIRRDFLLDEANGLLPDDKLTLFCEVSVVQDSVNISGQNTMNMVKVPECRLADELGGLWENSRFTDCCLCVAGQEFQAHKAILAARSPVFSAMFEHEMEESKKNRVEINDVEPEVFKEMMCFIYTGKAPNLDKMADDLLAAADKYALERLKVMCEDALCSNLSVENAAEILILADLHSADQLKTQAVDFINYHASDVLETSGWKSMVVSHPHLVAEAYRSLASAQCPFLGPPRKRLKQS [F133V]

# Variants of: B1
# Conditions: with hdac3_human HDAC3, O15379
# Sequence of hdac3_human HDAC3, O15379 (O15379 whole entry): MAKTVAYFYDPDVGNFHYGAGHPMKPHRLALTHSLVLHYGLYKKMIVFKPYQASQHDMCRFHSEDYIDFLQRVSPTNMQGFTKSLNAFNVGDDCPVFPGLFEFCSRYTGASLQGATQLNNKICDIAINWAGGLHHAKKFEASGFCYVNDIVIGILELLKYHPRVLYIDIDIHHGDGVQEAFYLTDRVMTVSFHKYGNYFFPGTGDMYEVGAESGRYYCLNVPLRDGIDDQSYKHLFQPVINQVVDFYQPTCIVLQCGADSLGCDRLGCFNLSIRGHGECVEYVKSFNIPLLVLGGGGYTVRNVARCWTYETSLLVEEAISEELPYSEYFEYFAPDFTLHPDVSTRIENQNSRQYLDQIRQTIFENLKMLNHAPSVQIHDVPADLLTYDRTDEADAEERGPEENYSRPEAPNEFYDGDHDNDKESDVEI
row,effect of a mutation on the interaction,Variant
1,with no effect,MSRVPSPPPPAEMSSGPVAESWCYTQIKVVKFSYMWTINNFSFCREEMGEVIKSSTFSSGANDKLKWCLRVNPKGLDEESKDYLSLYLLLVSCPKSEVRAKFKFSILNAKGEETKAMESQRAYRFVQGKDWGVKKFIRRDFLLDEANGLLPDDKLTLFCEVSVVQDSVNISGQNTMNMVKVPECRLADELGGLWENSRFTDCCLCVAGQEFQAHKAILAARSPVFSAMFEHEMEESKKNRVEINDVEPEVFKEMMCFIYTGKAPNLDKMADDLLAAADKYALERLKVMCEDALCSNLSVENAAEILILADLHSADQLKTQAVDFINYHASDVLETSGWKSMVVSHPHLVAEAYRSLASAQCPFLGPPRKRLKQS [F133V]

# Variants of: B1
# Conditions: with hgf_human HGF
row,effect of a mutation on the interaction,Variant
1,with no effect,MSRVPSPPPPAEMSSGPVAESWCYTQIKVVKFSYMWTINNFSFCREEMGEVIKSSTFSSGANDKLKWCLRVNPKGLDEESKDYLSLYLLLVSCPKSEVRAKFKFSILNAKGEETKAMESQRAYRFVQGKDWGVKKFIRRDFLLDEANGLLPDDKLTLFCEVSVVQDSVNISGQNTMNMVKVPECRLADELGGLWENSRFTDCCLCVAGQEFQAHKAILAARSPVFSAMFEHEMEESKKNRVEINDVEPEVFKEMMCFIYTGKAPNLDKMADDLLAAADKYALERLKVMCEDALCSNLSVENAAEILILADLHSADQLKTQAVDFINYHASDVLETSGWKSMVVSHPHLVAEAYRSLASAQCPFLGPPRKRLKQS [F133V]

# Variants of: B1
# Conditions: with h31_human H3C1, P68431
row,effect of a mutation on the interaction,Variant
1,with no effect,MSRVPSPPPPAEMSSGPVAESWCYTQIKVVKFSYMWTINNFSFCREEMGEVIKSSTFSSGANDKLKWCLRVNPKGLDEESKDYLSLYLLLVSCPKSEVRAKFKFSILNAKGEETKAMESQRAYRFVQGKDWGVKKFIRRDFLLDEANGLLPDDKLTLFCEVSVVQDSVNISGQNTMNMVKVPECRLADELGGLWENSRFTDCCLCVAGQEFQAHKAILAARSPVFSAMFEHEMEESKKNRVEINDVEPEVFKEMMCFIYTGKAPNLDKMADDLLAAADKYALERLKVMCEDALCSNLSVENAAEILILADLHSADQLKTQAVDFINYHASDVLETSGWKSMVVSHPHLVAEAYRSLASAQCPFLGPPRKRLKQS [F133V]

# Variants of: B1
# Conditions: with hlab_human HLA-B
row,effect of a mutation on the interaction,Variant
1,with no effect,MSRVPSPPPPAEMSSGPVAESWCYTQIKVVKFSYMWTINNFSFCREEMGEVIKSSTFSSGANDKLKWCLRVNPKGLDEESKDYLSLYLLLVSCPKSEVRAKFKFSILNAKGEETKAMESQRAYRFVQGKDWGVKKFIRRDFLLDEANGLLPDDKLTLFCEVSVVQDSVNISGQNTMNMVKVPECRLADELGGLWENSRFTDCCLCVAGQEFQAHKAILAARSPVFSAMFEHEMEESKKNRVEINDVEPEVFKEMMCFIYTGKAPNLDKMADDLLAAADKYALERLKVMCEDALCSNLSVENAAEILILADLHSADQLKTQAVDFINYHASDVLETSGWKSMVVSHPHLVAEAYRSLASAQCPFLGPPRKRLKQS [F133V]
